Assay results as given in patent US20250326860A1 (ADAGENE PTE, published 2025).
Values belong to the binder of their own block, whether it stands above or below them.

Legend:
[1] = biological target: T1, human CD3 on cells (Jurkat cells, human T cells) (human, UniProt P07766 23-207); test: cell-based or functional assay
[2] = biological target: T1, human CD3 on cells (Jurkat cells, human …); test: flow cytometry, human CD3+ T cells
Text: (§1) Human PBMCs were freshly isolated from the blood of healthy donors by density gradient centrifugation using Histopaque-1077 (Sigma). Human CD3+ T cells were further isolated from PBMCs using the Human T Cell Enrichment Kit (Stem Cell Technologies). Monkey PBMCs were isolated from a naïve cynomolgus monkey by density gradient centrifugation using Histopaque-1077 (Sigma). Monkey CD3+ T cells were isolated from PBMCs using the Pan T Cell Isolation Kit Non-Human Primate (Miltenyi Biotec). Purified human or monkey CD3+ T cells were stained with the testing antibodies as the primary antibody and the APC-labelled anti-human-Fc antibody (BioLegend) as the secondary antibody. After washing, the cells were analyzed on the CytoFLEX flow cytometer (Beckman Coulter) and the data was analyzed by FlowJo software.

[3] = biological target: T2, cynomolgus monkey CD3 on T cells (cynomolgus monkey, UniProt Q95LI5 22-198); test: flow cytometry, monkey CD3+ T cells
T2 construct: whole, on cells
Text: as §1

[4] = biological target: T3, human CD20 on cells (human B cells; Raji, SU-DHL-8, SU-DHL-4, A3KAW, NAMALWA) (human, UniProt P11836 1-297); test: flow cytometry, Raji cells
T3 construct: whole, on cells
T3 sequence (looked up): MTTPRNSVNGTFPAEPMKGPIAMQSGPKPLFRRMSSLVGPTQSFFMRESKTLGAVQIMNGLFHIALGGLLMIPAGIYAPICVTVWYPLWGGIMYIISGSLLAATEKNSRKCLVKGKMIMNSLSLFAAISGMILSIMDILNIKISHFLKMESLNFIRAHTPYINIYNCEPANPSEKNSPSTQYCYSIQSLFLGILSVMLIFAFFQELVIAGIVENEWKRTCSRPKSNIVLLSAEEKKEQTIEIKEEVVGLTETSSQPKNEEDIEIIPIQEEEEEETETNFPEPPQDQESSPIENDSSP
Description: (§2) Raji, SU-DHL-8, SU-DHL-4, A3KAW and NAMALWA were B-cell lymphoma cell lines with various CD20 expression levels on cell surface. Briefly, the test antibodies were serial diluted and were incubated with the tumor cells on ice. After washing, the cells were subsequently incubated with the APC-labelled anti-human-Fc secondary antibody (BioLegend) on ice. The cells were then washed with PBS prior to analysis by the CytoFLEX flow cytometer (Beckman Coulter). The data was analyzed by FlowJo software.

[5] = biological target: T3, human CD20 on cells (human B cells; …); test: flow cytometry, human B cells
Text: (§3) Human and monkey PBMCs were isolated as mentioned above. Human B cells were further isolated from PBMCs using the EasySep™ Human B Cell Isolation Kit (Stem Cell Technologies). Monkey B cells were isolated from PBMCs using the Non-Human B Primate Cell Isolation Kit (Stem Cell Technologies). Purified human or monkey B cells were stained with the testing antibodies as the primary antibody and the APC-labelled anti-human-Fc antibody (BioLegend) as the secondary antibody. After washing, the cells were analyzed on the CytoFLEX flow cytometer (Beckman Coulter) and the data was analyzed by FlowJo software.

[6] = biological target: T4, cynomolgus monkey CD20 on B cells (cynomolgus monkey, UniProt M4ZHZ6 1-297); test: flow cytometry, monkey B cells
T4 construct: whole, on cells
T4 sequence: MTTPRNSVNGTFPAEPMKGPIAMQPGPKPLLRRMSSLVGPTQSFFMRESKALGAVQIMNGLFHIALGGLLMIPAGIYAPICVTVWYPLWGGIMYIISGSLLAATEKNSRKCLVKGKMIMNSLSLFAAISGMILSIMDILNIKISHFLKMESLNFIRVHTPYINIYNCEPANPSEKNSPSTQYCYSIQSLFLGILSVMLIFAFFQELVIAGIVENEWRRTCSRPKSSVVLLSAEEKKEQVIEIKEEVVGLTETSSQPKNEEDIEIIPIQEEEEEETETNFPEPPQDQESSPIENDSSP
Text: as §3

[7] = biological target: T3, human CD20 on cells (human B cells; …); test: flow cytometry, NAMALWA cells
Description: as §2

[8] = biological target: T3, human CD20 on cells (human B cells; …); test: flow cytometry, SU-DHL-4 cells
Description: as §2

[9] = biological target: T3, human CD20 on cells (human B cells; …); test: flow cytometry, A3KAW cells
Description: as §2

[10] = biological target: T3, human CD20 on cells (human B cells; …); test: flow cytometry, SU-DHL-8 cells
Description: as §2

T1 sequence (P07766 23-207): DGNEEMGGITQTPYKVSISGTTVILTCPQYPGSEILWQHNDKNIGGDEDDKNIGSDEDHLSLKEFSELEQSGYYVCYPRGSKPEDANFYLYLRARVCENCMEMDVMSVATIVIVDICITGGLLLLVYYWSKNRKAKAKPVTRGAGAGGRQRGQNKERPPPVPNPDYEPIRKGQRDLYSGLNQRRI
T2 sequence (Q95LI5 22-198): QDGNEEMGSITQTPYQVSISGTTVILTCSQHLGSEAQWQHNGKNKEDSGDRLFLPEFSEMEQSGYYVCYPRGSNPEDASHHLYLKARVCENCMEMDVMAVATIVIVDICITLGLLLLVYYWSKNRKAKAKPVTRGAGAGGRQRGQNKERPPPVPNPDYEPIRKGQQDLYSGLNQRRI

B1: TY23118 (antibody)
light: EVGSYDADDPDCPADNNHCHYSGRSAGGGGTPLGLAGSGGSQAVVTQEPSLTVSPGGTVTLTCGSSTGAVTTSNYANWVQQKPGQAPRGLIGGTNKRAPGVPARFSGSLLGGKAALTLSGAQPEDEAEYYCALWYSNLWVFGGGTKLTVLRTVAAPSVFIFPPSDEQLKSGTASVVCLLNNFYPREAKVQWKVDNALQSGNSQESVTEQDSKDSTYSLSSTLTLSKADYEKHKVYACEVTHQGLSSPVTKSFNRGEC
heavy: not shown
Jurkat NFAT reporter assay EC50 [1]: 7.9 nM
Masking efficiency (Jurkat NFAT reporter assay) [1]: 419 fold

B4: TY25715 (bispecific antibody, human IgG1, kappa, N297A)
light: QIVLSQSPAILSASPGEKVTMTCRASSSVSYIHWFQQKPGKSPKPWIYATSNLASGVPVRFSGSGSGTSYSLTISRVEAEDAATYYCQQWTSNPPTFGGGTKVEIKRTVAAPSVFIFPPSDEQLKSGTASVVCLLNNFYPREAKVQWKVDNALQSGNSQESVTEQDSKDSTYSLSSTLTLSKADYEKHKVYACEVTHQGLSSPVTKSFNRGEC
heavy: EVQLVQSGAEVKKPGSSVKVSCKASGYTFTSYNMHWVRQAPGKGLEWIGAIYPGSGDTSYNQKFKGRVTITADKSTSTAYMELSSLRSEDTAVYYCARSTYYGGDWYFNVWGQGTLVTVSSASTKGPSVFPLAPSSKSTSGGTAALGCLVKDYFPEPVTVSWNSGALTSGVHTFPAVLQSSGLYSLSSVVTVPSSSLGTQTYICNVNHKPSNTKVDKKVEPKSCDKTHTCPPCPAPELLGGPSVFLFPPKPKDTLMISRTPEVTCVVVDVSHEDPEVKFNWYVDGVEVHNAKTKPREEQYASTYRVVSVLTVLHQDWLNGKEYKCKVSNKALPAPIEKTISKAKGQPREPQVYTLPPSRKKLTKNQVKLTCLVKGFYPSDIAVEWESNGQPENNYKTTPPVLDCDGSFFLYSKLTVDKSRWQQGNVFSCSVMHEALHNHYTQKSLSLSPGK
chain: EAVVTQEPSLTVSPGGTVTLTCGSSTGAVTTSNYPNWVQQKPGQAPRGLIGGTNKRAPGTPARFSGSLLGGKAALTLSGAQPEDEAEYYCALWYSDLWVFGGGTKLTVLGGGGSGGGGSGGGGSGGGGSEVQLVESGGGLVQPGGSLRLSCAASGFTFSTYAINWVRQAPGKGLEWVSRIRSKYNNYATYYAESVKDRFTISRDDSKNTLYLQINSLRAEDTAVYYCVRHGNFGTSYVSWFAYWGQGTLVTVSSEPKSSDKTHTCPPCPAPELLGGPSVFLFPPKPKDTLMISRTPEVTCVVVDVSHEDPEVKFNWYVDGVEVHNAKTKPREEQYASTYRVVSVLTVLHQDWLNGKEYKCKVSNKALPAPIEKTISKAKGQPREPQVYTDPPSRDELTKNQVSLTCLVDGFYPSDIAVEWESNGQPENCYKTTPPVLDSDGSFFLYSKLTVDKSRWQQGNVFSCSVMHEALHNHYTQDSLSLSPGK
notes: also called parental CD20xCD3 bispecific antibody of TY25716
EC50 [2]: 28.8 nM
max MFI [2]: 2260 MFI
EC50 [3]: 20.7 nM
max MFI [3]: 1120 MFI

B5: TY25716 (bispecific antibody, human IgG1, kappa, N297A)
light: QIVLSQSPAILSASPGEKVTMTCRASSSVSYIHWFQQKPGKSPKPWIYATSNLASGVPVRFSGSGSGTSYSLTISRVEAEDAATYYCQQWTSNPPTFGGGTKVEIKRTVAAPSVFIFPPSDEQLKSGTASVVCLLNNFYPREAKVQWKVDNALQSGNSQESVTEQDSKDSTYSLSSTLTLSKADYEKHKVYACEVTHQGLSSPVTKSFNRGEC
heavy: EVQLVQSGAEVKKPGSSVKVSCKASGYTFTSYNMHWVRQAPGKGLEWIGAIYPGSGDTSYNQKFKGRVTITADKSTSTAYMELSSLRSEDTAVYYCARSTYYGGDWYFNVWGQGTLVTVSSASTKGPSVFPLAPSSKSTSGGTAALGCLVKDYFPEPVTVSWNSGALTSGVHTFPAVLQSSGLYSLSSVVTVPSSSLGTQTYICNVNHKPSNTKVDKKVEPKSCDKTHTCPPCPAPELLGGPSVFLFPPKPKDTLMISRTPEVTCVVVDVSHEDPEVKFNWYVDGVEVHNAKTKPREEQYASTYRVVSVLTVLHQDWLNGKEYKCKVSNKALPAPIEKTISKAKGQPREPQVYTLPPSRKKLTKNQVKLTCLVKGFYPSDIAVEWESNGQPENNYKTTPPVLDCDGSFFLYSKLTVDKSRWQQGNVFSCSVMHEALHNHYTQKSLSLSPGK
chain: EVGSYPYDDPDCPSHESDCDQGGGPLGLAGGSEAVVTQEPSLTVSPGGTVTLTCGSSTGAVTTSNYPNWVQQKPGQAPRGLIGGTNKRAPGTPARFSGSLLGGKAALTLSGAQPEDEAEYYCALWYSDLWVFGGGTKLTVLGGGGSGGGGSGGGGSGGGGSEVQLVESGGGLVQPGGSLRLSCAASGFTFSTYAINWVRQAPGKGLEWVSRIRSKYNNYATYYAESVKDRFTISRDDSKNTLYLQINSLRAEDTAVYYCVRHGNFGTSYVSWFAYWGQGTLVTVSSEPKSSDKTHTCPPCPAPELLGGPSVFLFPPKPKDTLMISRTPEVTCVVVDVSHEDPEVKFNWYVDGVEVHNAKTKPREEQYASTYRVVSVLTVLHQDWLNGKEYKCKVSNKALPAPIEKTISKAKGQPREPQVYTDPPSRDELTKNQVSLTCLVDGFYPSDIAVEWESNGQPENCYKTTPPVLDSDGSFFLYSKLTVDKSRWQQGNVFSCSVMHEALHNHYTQDSLSLSPGK
EC50 [4]: 28 nM
Max MFI [4]: 23500 MFI
EC50 [5]: 14.5 nM
max MFI [5]: 50000 MFI
EC50 [6]: 13.5 nM
max MFI [6]: 28100 MFI
EC50 [7]: 162 nM
Max MFI [7]: 647000 MFI
EC50 [8]: 14.6 nM
Max MFI [8]: 2.48e+06 MFI
EC50 [9]: 220 nM
Max MFI [9]: 967000 MFI
EC50 [10]: 37.2 nM
Max MFI [10]: 5280 MFI

More lines, now with the values ahead:

Jurkat NFAT reporter assay EC50 [1]: 7.7 nM
Masking efficiency (Jurkat NFAT reporter assay) [1]: 409 fold
B2: TY23115 (antibody)
light: EVGSYPYDDPDCPSHDSDCDNSGRSAGGGGTPLGLAGSGGSQAVVTQEPSLTVSPGGTVTLTCGSSTGAVTTSNYANWVQQKPGQAPRGLIGGTNKRAPGVPARFSGSLLGGKAALTLSGAQPEDEAEYYCALWYSNLWVFGGGTKLTVLRTVAAPSVFIFPPSDEQLKSGTASVVCLLNNFYPREAKVQWKVDNALQSGNSQESVTEQDSKDSTYSLSSTLTLSKADYEKHKVYACEVTHQGLSSPVTKSFNRGEC
heavy: not shown

Jurkat NFAT reporter assay EC50 [1]: 3.6 nM
Masking efficiency (Jurkat NFAT reporter assay) [1]: 191 fold
B3: TY23110 (antibody)
light: EVGSYAPHDPDCPADPPSCYPSGRSAGGGGTPLGLAGSGGSQAVVTQEPSLTVSPGGTVTLTCGSSTGAVTTSNYANWVQQKPGQAPRGLIGGTNKRAPGVPARFSGSLLGGKAALTLSGAQPEDEAEYYCALWYSNLWVFGGGTKLTVLRTVAAPSVFIFPPSDEQLKSGTASVVCLLNNFYPREAKVQWKVDNALQSGNSQESVTEQDSKDSTYSLSSTLTLSKADYEKHKVYACEVTHQGLSSPVTKSFNRGEC
heavy: not shown
